Assay results as given in the supplement of paper PMC7125110.
± gives the standard error. Fewer inactive variants are shown than the library holds.

B1: glmS ribozyme (parent)
chain: AUAAAAGCGCCAGAACUACAGAAAUGUAGUUGACGAGGAGGAGGUUUAUCGAAUUUUCGGCGGAUGCCUCCAAA

Variants of: B1
Test: self-cleavage kobs at 10000 uM GlcN6P; higher = faster cleavage; RNA array
Conditions: with glucosamine-6-phosphate
Method in brief: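 Barcoded ribozyme variants on sequenced MiSeq chips were transcribed in situ by E. coli RNA polymerase and followed at 37 °C through a hybridised Cy3 probe. Glucosamine-6-phosphate at 40 μM to 10 mM in HEPES/KCl/Mg(OAc)2 buffer was flowed in, and tiles were imaged over ~14 h. Signals were normalised to baseline and to non-cleaving reference variants, and per-tile medians were fit to one- or two-exponential decays to give kobs. Weighted Michaelis–Menten fits across concentrations gave kcat and KM.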

Row | Variant | self-cleavage kobs at 10000 uM GlcN6P
1 | C8U C10U G13C C50G G51U A52C C71A | < 1e-05 s⁻¹
2 | A42U A48U U65C | < 1e-05 s⁻¹
3 | C11U U31G U54A | 0.0029 ± 0.0008 s⁻¹
4 | C8U G40U C61U C67U | < 1e-05 s⁻¹
5 | C10U G13A G40U | < 1e-05 s⁻¹
6 | A33G G35U A39G A53U G62C | < 1e-05 s⁻¹
7 | G32U U57A C68G | 6.42e-05 ± 2.1e-05 s⁻¹
8 | C11A A33G C50U C58U G59U G63A | < 1e-05 s⁻¹
9 | A6G U45A U57G | < 1e-05 s⁻¹
10 | C11U A64U C67G | < 1e-05 s⁻¹
11 | G9A U65A C67A C70G | 5.56e-05 ± 1.6e-05 s⁻¹
12 | U30G A36G G40U C68A | < 1e-05 s⁻¹
13 | A64G C70A | 3.24e-05 ± 9.8e-06 s⁻¹
14 | G29C C34U G38A C71U | < 1e-05 s⁻¹
15 | U2C C11U G59U | 0.000103 ± 2.1e-05 s⁻¹
16 | C8U U57A U69G | 0.000575 ± 0.00016 s⁻¹
17 | G37C A64G C70U | 4.49e-05 ± 1.6e-05 s⁻¹
18 | G7A C71U | 3.82e-05 ± 1e-05 s⁻¹
19 | U46A U47G G66C | 0.000401 ± 9.3e-05 s⁻¹
20 | G9A G43A U57A U65A U69A C71A | < 1e-05 s⁻¹
21 | C8A C11G U49C C67G | < 1e-05 s⁻¹

Row | Variant | self-cleavage kobs at 10000 uM GlcN6P
22 | G40C G51C U57A | < 1e-05 s⁻¹
23 | C11A A42U G51U G60C | < 1e-05 s⁻¹
24 | A15U A39G G62A | < 1e-05 s⁻¹
25 | A36U U49A | 8.19e-05 ± 9.1e-06 s⁻¹
26 | A39G U57A C68U | 0.000176 ± 4e-05 s⁻¹
27 | A12U G40U U54A | 0.000861 ± 0.00024 s⁻¹
28 | A12G A14C A39C G44U G51U | < 1e-05 s⁻¹
29 | C10G C11A G38C G43U G51C U56C G60C | < 1e-05 s⁻¹
30 | G29C U49A C50A | < 1e-05 s⁻¹
31 | U31A A42G U46C | 0.000411 ± 9.2e-05 s⁻¹
32 | A15U G29C U47G U54A | 0.000122 ± 2.4e-05 s⁻¹
33 | G7A G13C G60A | < 1e-05 s⁻¹
34 | A14G G40C U49G C50G G51C | < 1e-05 s⁻¹
35 | C34A C58G C68G | 0.000608 ± 0.00016 s⁻¹
36 | A15U G41U A48U U55C | < 1e-05 s⁻¹
37 | G13A C16U G32U | 0.000302 ± 4.9e-05 s⁻¹
38 | U30A U31C A53G | 0.00407 ± 0.0007 s⁻¹
39 | C34G G35U G38A C50A U69G | 0.000375 ± 5.4e-05 s⁻¹
40 | C16U U45C U55G | 0.00144 ± 0.0003 s⁻¹
41 | G35C A42G U45G | < 1e-05 s⁻¹
42 | A42U A64C C67U | < 1e-05 s⁻¹

Row | Variant | self-cleavage kobs at 10000 uM GlcN6P
43 | A15C G35C C50G | 4.99e-05 ± 1.2e-05 s⁻¹
44 | G32C G38C G60U C67G | < 1e-05 s⁻¹
45 | A33C U46G A52U | < 1e-05 s⁻¹
46 | G7A U30A A39C A48C | < 1e-05 s⁻¹
47 | A14C U47G U54C | 0.00121 ± 0.00018 s⁻¹
48 | A14U A53U U56G C58U | 3.75e-05 ± 8.7e-06 s⁻¹
49 | G13C U65A | < 1e-05 s⁻¹
50 | G13C U47A | 7.19e-05 ± 9.5e-06 s⁻¹
51 | G7U C61U C70A | < 1e-05 s⁻¹
52 | C10U A15C U31C | < 1e-05 s⁻¹
53 | C58U G59C C61G G62C A64G U65A G66U | < 1e-05 s⁻¹
54 | C16G G29A C67A | 0.000261 ± 8.9e-05 s⁻¹
55 | U30G U31G U46C U65G | 5.94e-05 ± 2.6e-05 s⁻¹
56 | G41A U45C A53U | 0.000355 ± 8.4e-05 s⁻¹
57 | C11G A14C G43U | < 1e-05 s⁻¹
58 | G32U G43U A53G G63U A64G G66U | < 1e-05 s⁻¹
59 | A52U G66C | 4.08e-05 ± 1.2e-05 s⁻¹
60 | C8U U31C A39U G66C | < 1e-05 s⁻¹
61 | G13A G51U G60U | < 1e-05 s⁻¹
62 | U54G C67U C68U | 0.000147 ± 2.9e-05 s⁻¹
63 | A12U C16U A42G | 0.0803 ± 0.038 s⁻¹

Row | Variant | self-cleavage kobs at 10000 uM GlcN6P
64 | G40C G59C U65G | < 1e-05 s⁻¹
65 | A15G C16U A39U | 0.00651 ± 0.0013 s⁻¹
66 | C10A C11A G44A | < 1e-05 s⁻¹
67 | G59C G63C | < 1e-05 s⁻¹
68 | A14U U55C C67A C70A C71U | < 1e-05 s⁻¹
69 | C8U A12C A15U G38U A64U | < 1e-05 s⁻¹
70 | C34U G38U G40U | < 1e-05 s⁻¹
71 | G7C G62C | < 1e-05 s⁻¹
72 | G29C C34G G40C C70A | < 1e-05 s⁻¹
73 | U55G G59C C70A | 0.000104 ± 2.7e-05 s⁻¹
74 | C10G C11G U55C G60A | < 1e-05 s⁻¹
75 | C16G G29U C58A | 0.000585 ± 0.00014 s⁻¹
76 | A6G U55G C70U | 8.99e-05 ± 1.5e-05 s⁻¹
77 | A12C G29C C70U | 0.00119 ± 0.00031 s⁻¹
78 | C8U G51U U69A | 0.000401 ± 0.00014 s⁻¹
79 | C11G G60U U69G | < 1e-05 s⁻¹
80 | A39U A42G U46C | 0.00379 ± 0.00069 s⁻¹
81 | C50G C67U C68G C71G | 0.000108 ± 2.8e-05 s⁻¹
82 | A14G A36C U54A G63U | < 1e-05 s⁻¹
83 | C8A A12G U31G A39U | < 1e-05 s⁻¹
